Test results taken from PMC4499158, “Outwitting EF-Tu and the ribosome: translation with d-amino acids”.

Target: EF-Tu (GTP form) (Escherichia coli K12 MG1655, UniProt P0CE47 1-394)
Assay: EMSA; GTP; L-Gln-tRNA; Native PAGE EMSA; EF-Tu preincubated with GTP, phosphoenol pyruvate and pyruvate kinase, 20 µl reactions, 3'-32P aminoacyl-tRNA; buffer, salt, pH and temperature not in the material
Settings: protein: recombinant; tags: StrepTag or TwinStrep-Tag; label: 3' 32P; tRNA cloverleaf

Chain of EF-Tu (GTP form) (P0CE47 whole entry): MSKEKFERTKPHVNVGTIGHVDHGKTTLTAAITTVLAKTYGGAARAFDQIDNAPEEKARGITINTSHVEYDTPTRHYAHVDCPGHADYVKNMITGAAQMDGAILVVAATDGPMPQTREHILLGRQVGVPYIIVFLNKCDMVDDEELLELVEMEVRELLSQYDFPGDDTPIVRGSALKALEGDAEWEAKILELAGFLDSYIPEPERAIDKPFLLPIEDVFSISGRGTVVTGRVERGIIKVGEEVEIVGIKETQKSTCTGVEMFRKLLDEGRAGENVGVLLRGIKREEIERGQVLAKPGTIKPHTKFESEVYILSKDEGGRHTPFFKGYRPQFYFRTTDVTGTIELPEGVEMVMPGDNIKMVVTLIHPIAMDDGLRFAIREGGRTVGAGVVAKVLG

B1: tRNAGly tp (structured_RNA)
RNA: GCGGGCGUAGUUCAAUGGUAGAACGAGAGCUUCCCAAGCUCUAUACGAAGGUUCGAUUCCUUCCGCCCGCUCCA
modifications: 3'-aminoacyl as per row
Does B1 bind?
Result: binds
